Test results from US20210030857A1 (NGM BIOPHARMACEUTICALS, published 2021).
Blank lines part the entries; values can stand above or below the binder they belong to.

Tests used:
[1] = molecular target: T1, human beta klotho / human FGFR1c receptor complex on cells (human, UniProt Q86Z14 1-1044; P11362 22-822); experiment: cell-based or functional assay
[2] = molecular target: cynomolgus beta klotho / human FGFR1c receptor complex on cells (cynomolgus monkey (Macaca …)); experiment: cell-based or functional assay
[3] = molecular target: T1, human beta klotho / human FGFR1c …; experiment: cell-based or functional assay; remark: listed apart in the source
[4] = molecular target: T2, human beta klotho expressed on cells (human, UniProt Q86Z14 1-1044); experiment: FACS competition on HuKLB-overexpressing cells; row antibody unlabelled; competitor 5H23-Alexa647 (labelled, EC10); MFI of the label
T2 construct: also called HuKLB overexpressing cells; Human KLB
T2 sequence: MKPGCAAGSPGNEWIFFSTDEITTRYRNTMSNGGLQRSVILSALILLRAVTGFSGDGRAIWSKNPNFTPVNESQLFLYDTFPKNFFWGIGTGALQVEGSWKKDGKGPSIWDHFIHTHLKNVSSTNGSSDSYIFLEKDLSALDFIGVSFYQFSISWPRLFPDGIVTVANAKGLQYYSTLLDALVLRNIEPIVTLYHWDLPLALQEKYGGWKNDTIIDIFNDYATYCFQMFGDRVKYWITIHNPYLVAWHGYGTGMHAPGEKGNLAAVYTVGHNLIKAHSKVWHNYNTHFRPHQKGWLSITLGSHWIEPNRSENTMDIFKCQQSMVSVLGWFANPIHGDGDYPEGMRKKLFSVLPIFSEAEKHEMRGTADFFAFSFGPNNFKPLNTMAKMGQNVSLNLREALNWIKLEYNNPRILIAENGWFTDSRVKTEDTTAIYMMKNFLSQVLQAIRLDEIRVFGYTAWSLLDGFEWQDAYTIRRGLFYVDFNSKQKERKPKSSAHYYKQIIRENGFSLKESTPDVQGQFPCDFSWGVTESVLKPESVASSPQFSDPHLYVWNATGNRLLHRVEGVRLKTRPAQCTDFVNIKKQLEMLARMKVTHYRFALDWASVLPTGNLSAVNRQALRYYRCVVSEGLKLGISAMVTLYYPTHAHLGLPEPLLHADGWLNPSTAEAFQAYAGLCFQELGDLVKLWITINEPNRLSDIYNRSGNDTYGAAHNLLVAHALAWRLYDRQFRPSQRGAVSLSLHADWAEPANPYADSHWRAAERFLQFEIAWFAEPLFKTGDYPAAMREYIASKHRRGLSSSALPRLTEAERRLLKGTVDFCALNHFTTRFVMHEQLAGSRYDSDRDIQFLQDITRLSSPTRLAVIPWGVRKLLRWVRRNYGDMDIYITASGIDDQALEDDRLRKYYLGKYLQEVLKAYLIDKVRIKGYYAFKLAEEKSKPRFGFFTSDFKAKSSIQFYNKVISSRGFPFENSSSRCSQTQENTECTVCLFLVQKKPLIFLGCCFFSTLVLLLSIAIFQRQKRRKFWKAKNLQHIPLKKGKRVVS
Experimental: (§1) For example, for competition binding assays by FACS analysis, antibody standards were prepared that were conjugated to a fluorochrome using either A488 or A647 antibody labeling kit (Invitrogen) following manufacturer's instructions. A dose titration of the conjugated antibody standard was evaluated using HuKLB overexpressing cells. The plateau of the maximal signal of antibody binding is EC=100 and the background signal is EC=0. Competition by FACS against the fluorochrome labeled antibody was performed by pre-incubating HuKLB overexpressing cells with hybridoma supernatants for 15 minutes at room temperature. Without washing, an EC=10 concentration of A488 or A647 labelled antibody standard was added. EC=10 for an individual antibody was determined by 10% of signal using the maximum signal as (100%) and background signal as (0%). After 30 minutes at 4° C., cells are washed and analyzed by FACS. […] A partial competing antibody is one sample that show signal between labelled antibody alone and background. Antibodies that show complete competition against the same standard antibody are considered to be in the same bin.
(§2) Representative results are shown in Table 12 below reported as mean fluorescence intensity (MFI).

[5] = molecular target: T2, human beta klotho expressed on cells; experiment: FACS competition on HuKLB-overexpressing cells; row antibody unlabelled; competitor 3I13-Alexa488 (labelled, EC10); MFI of the label
Experimental: as §1, §2

[6] = molecular target: T1, human beta klotho / human FGFR1c …; experiment: cell-based or functional assay; remark: listed apart in the source
[7] = molecular target: T3, human beta klotho protein (soluble, used in Biacore) (human, UniProt Q86Z14 53-997, limits assumed); experiment: Biacore SPR (as in Example 2)
T3 construct: also called HuKLB; huKLB
T3 sequence: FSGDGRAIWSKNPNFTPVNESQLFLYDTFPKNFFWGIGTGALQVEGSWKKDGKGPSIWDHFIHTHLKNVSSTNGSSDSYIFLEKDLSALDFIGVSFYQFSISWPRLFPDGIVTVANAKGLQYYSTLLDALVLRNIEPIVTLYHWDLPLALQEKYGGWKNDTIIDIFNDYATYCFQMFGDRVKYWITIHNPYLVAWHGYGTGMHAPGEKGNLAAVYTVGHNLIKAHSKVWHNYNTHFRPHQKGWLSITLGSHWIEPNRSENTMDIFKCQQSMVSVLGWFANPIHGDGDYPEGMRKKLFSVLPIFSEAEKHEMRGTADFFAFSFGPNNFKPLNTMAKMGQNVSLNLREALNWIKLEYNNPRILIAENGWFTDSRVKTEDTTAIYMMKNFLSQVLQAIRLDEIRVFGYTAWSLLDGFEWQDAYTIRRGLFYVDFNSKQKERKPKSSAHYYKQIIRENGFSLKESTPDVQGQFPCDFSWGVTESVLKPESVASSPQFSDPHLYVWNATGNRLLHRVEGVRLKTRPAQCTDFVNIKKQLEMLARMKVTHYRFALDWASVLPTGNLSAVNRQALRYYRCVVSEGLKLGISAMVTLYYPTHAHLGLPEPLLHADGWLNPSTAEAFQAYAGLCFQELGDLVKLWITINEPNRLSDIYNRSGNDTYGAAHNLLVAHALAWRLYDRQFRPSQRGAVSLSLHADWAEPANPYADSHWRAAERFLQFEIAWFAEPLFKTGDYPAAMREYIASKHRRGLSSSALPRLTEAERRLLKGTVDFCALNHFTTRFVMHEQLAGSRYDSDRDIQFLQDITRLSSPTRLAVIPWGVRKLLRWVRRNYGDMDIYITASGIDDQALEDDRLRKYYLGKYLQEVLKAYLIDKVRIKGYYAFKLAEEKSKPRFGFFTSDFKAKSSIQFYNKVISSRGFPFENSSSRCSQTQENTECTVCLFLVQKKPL

[8] = molecular target: T4, cynomolgus monkey beta klotho protein (soluble, used in Biacore) (cynomolgus monkey (Macaca fascicularis), UniProt Q86Z14 53-996 (human entry), limits assumed); experiment: Biacore SPR (as in Example 2)
T4 construct: Protein in solution; also called Cyno KLB; cyKLB
T4 chain: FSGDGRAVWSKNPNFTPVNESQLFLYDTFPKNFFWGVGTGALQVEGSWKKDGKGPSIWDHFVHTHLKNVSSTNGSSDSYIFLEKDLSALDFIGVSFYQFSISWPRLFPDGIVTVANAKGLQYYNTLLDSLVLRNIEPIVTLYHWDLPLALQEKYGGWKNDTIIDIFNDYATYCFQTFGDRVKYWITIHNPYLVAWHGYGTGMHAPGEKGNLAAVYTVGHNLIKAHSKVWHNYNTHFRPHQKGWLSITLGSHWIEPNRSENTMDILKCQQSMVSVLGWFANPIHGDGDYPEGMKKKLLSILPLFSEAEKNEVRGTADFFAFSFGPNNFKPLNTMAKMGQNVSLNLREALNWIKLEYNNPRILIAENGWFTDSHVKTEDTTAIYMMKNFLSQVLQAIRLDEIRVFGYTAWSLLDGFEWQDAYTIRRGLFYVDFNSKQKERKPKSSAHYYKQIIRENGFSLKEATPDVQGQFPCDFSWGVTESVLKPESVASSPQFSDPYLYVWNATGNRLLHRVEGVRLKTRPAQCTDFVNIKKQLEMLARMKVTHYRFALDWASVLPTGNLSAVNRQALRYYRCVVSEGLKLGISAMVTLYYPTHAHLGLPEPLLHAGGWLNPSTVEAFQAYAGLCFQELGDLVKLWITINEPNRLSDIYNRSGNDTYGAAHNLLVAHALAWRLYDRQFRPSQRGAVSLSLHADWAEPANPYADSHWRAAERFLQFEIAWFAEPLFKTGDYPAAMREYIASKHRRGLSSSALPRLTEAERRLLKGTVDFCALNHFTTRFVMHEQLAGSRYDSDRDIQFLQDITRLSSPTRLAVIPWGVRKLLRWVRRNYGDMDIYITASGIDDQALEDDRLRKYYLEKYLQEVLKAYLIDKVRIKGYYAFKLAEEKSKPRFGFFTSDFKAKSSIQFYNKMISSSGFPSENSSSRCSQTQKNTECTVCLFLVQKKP

cynomolgus beta klotho / human FGFR1c receptor complex on cells (cynomolgus monkey (Macaca …)), sequence (chain, as listed by the source limits assumed, chain 1 of 2): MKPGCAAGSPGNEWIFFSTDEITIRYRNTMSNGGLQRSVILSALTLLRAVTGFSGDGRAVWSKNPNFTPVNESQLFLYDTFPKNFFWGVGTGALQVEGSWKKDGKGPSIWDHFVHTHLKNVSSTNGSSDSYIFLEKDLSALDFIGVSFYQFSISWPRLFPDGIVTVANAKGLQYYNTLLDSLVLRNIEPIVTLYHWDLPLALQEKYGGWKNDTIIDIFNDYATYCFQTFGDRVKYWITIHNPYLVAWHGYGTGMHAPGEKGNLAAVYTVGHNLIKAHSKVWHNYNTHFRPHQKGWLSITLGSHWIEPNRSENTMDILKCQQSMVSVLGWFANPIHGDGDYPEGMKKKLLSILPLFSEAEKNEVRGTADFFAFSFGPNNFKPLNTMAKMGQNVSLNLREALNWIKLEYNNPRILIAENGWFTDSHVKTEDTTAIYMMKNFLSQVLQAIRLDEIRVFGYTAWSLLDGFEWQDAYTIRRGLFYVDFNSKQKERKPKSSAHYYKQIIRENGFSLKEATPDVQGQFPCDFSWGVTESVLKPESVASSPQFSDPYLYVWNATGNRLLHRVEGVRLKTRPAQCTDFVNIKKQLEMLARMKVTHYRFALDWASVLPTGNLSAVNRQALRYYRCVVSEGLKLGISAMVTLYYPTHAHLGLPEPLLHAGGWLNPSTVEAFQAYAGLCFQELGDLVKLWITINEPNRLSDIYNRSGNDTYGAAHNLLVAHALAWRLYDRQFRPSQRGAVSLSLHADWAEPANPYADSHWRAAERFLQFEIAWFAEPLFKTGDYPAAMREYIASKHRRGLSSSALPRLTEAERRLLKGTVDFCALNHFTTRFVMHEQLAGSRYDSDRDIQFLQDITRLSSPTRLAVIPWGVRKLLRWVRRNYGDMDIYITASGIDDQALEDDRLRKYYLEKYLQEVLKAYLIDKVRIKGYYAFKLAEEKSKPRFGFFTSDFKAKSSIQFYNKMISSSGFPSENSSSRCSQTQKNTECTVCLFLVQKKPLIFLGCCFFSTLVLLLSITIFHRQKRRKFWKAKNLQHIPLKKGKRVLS
cynomolgus beta klotho / human FGFR1c receptor complex on cells (cynomolgus monkey (Macaca …)), sequence (chain, as listed by the source limits assumed, chain 2 of 2): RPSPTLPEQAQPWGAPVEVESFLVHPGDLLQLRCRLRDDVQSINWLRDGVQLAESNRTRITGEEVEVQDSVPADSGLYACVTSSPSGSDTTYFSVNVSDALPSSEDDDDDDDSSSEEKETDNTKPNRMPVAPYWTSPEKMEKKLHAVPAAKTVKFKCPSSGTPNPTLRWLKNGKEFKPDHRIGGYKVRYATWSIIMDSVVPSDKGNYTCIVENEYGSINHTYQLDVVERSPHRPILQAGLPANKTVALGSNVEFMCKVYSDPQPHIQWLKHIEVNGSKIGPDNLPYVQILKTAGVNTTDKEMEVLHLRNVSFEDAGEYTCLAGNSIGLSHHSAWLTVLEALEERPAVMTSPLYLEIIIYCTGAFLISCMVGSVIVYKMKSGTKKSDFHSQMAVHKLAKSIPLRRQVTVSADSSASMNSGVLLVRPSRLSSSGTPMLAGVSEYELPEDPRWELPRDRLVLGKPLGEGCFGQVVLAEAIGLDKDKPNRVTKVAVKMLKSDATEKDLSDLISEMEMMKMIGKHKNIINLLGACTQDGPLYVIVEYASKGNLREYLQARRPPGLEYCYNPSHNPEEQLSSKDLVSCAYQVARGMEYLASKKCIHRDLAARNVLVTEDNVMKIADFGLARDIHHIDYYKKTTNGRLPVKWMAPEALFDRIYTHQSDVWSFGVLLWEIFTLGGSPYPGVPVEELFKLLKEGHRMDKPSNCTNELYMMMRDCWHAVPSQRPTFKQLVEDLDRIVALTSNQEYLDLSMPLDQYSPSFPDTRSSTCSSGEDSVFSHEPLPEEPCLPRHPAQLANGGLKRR

HEK293 huKLB/R1c reporter assay EC50, Experiment - A [1]: 0.231 nM
HEK293 huKLB/R1c reporter assay EC50, Experiment - B [1]: 0.127 nM
HEK293 cynoKLB/R1c reporter assay EC50, Experiment - A [2]: 2.35 nM
HEK293 cynoKLB/R1c reporter assay EC50, Experiment - B [2]: 2.45 nM
hAdip pERK assay EC50, Experiment - B [3]: 1.3 nM
Mean Florescence Intensity (MFI) [4]: 2.2 MFI
Mean Florescence Intensity (MFI) [5]: 29 MFI
B1: antibody 1G19 (antibody, V domains shown)
VH: QVQLQESGPGLVKPSQSLSLTCSVTGYSITSGYYWNWIRQFPGNKLEWMGYINYGGSNNYNPSLKNRISITRDTSKNQFFLKLTSVTTEDTATYYCARRGAYYSNYDSFDVWGTGTTVTVSS
VL: DIKMTQSPSSMYASLGERVTITCKASQDINSYLSWFQQKPGKSPKTLIYRANRLVDGVPSRFSGSGSGQDYSLTISSLEYEEMGIYYCLQYDEFPYTFGGGTKLEIK
notes: Murine monoclonal antibody

EC50-adipocyte [6]: 5.5 nM
EC50 reporter assay [6]: 0.68 nM
Kd [7]: 0.23 nM
Kd [8]: 0.59 nM
B2: humanized 5H23 antibody vH3-vL2 (antibody, human IgG1, kappa, V domains shown)
VH: QVQLQQSGAEVKKPGASVKVSCKASGYTFTSYDINWVRQAPGQGLEWIGWIYPGDGSTKYNEKFKGKATITRDTSASTAYMELSSLRSEDTAVYFCARSDYYGSRSFAYWGQGTLVTVSS
VL: DIVMTQSPDSLAVSLGERATINCRASKSVSTSGYVYMHWYQQKPGQPPKLLIYLASYLESGVPDRFSGSGSGTDFTLTISSVQAEDVAVYYCQHSRDLTFPFGGGTKLEIKR
notes: Probably the same antibody as m13; also called vH3 (vL2 group)
